Experimental data: PMC4545946, “Human Papillomavirus Type 18 cis-Elements Crucial for Segregation and Latency”

How the values were obtained:
Conditions in all cases: protein: recombinant; tags: N-terminal Strep-II; chain copies: 2; label: 32P 5' end
[1] = molecular target: T1, HPV-18 E2 (N-terminal Strep-II tag) (Human papillomavirus type 18, UniProt P06790 1-365); assay: EMSA; two dimers, cooperative; intermediate k12 (value only in Fig 4D)
[2] = molecular target: T1, HPV-18 E2 (N-terminal Strep-II tag); assay: EMSA; two dimers, cooperative; highest k12 (value only in Fig 4D)
[3] = molecular target: T1, HPV-18 E2 (N-terminal Strep-II tag); assay: EMSA; two dimers, cooperative; k12 order 1-Linker < 3-Linker < 2-Linker (values only in Fig 4D); >95% probe bound at 1.65 uM E2

T1 sequence (P06790 whole entry): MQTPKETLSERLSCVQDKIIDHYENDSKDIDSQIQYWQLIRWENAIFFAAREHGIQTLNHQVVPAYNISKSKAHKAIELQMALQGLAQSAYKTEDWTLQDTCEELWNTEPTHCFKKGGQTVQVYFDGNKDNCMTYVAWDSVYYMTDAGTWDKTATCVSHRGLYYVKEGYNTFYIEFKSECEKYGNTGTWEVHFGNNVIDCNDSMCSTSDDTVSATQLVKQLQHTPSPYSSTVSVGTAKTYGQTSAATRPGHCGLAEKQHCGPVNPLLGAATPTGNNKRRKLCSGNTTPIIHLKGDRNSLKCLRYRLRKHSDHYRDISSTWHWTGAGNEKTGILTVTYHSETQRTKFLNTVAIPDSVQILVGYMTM

B1: 3-Linker (E2BS #1 and #2, 12 bp spacer) (dsDNA)
DNA 1: ACCGAAAACGGTCGGGCGGGCGGGACCGAAAACGGT
DNA 2: ACCGTTTTCGGTCCCGCCCGCCCGACCGTTTTCGGT
binding result [1]: binds

B2: 2-Linker (E2BS #1 and #2, 8 bp spacer) (dsDNA)
DNA 1: ACCGAAAACGGTCGGGCGGGACCGAAAACGGT
DNA 2: ACCGTTTTCGGTCCCGCCCGACCGTTTTCGGT
binding result [2]: binds

B3: 1-Linker (wt, E2BS #1 and #2 with CGGG spacer) (dsDNA)
DNA 1: ACCGAAAACGGTCGGGACCGAAAACGGT
DNA 2: ACCGTTTTCGGTCCCGACCGTTTTCGGT
binding result [3]: binds
